Laboratory results as given in patent publication US9644034B2, “Anti-RSPO2 antibodies and uses thereof” (OncoMed Pharmaceuticals, Inc., priority 2011, dated 2017).
Residue numbers refer to the chain shown, from its start. Blank lines part the entries; values can stand above or below the molecule they belong to.

How the values were obtained:
[1] = system: PN31 pancreatic tumor cells; assay: PN31 pancreatic tumor xenograft growth in NOD/SCID mice; type: in vivo; settings: vs control; antibodies 15 mg/kg once a week, gemcitabine once a week, intraperitoneal
Experimental: Dissociated PN31 pancreatic tumor cells (1×10^5cells) were injected subcutaneously into the flanks of 6-8 week old NOD/SCID mice. Tumors were allowed to grow for 61 days until they reached an average volume of 120 mm^3. The mice were randomized (n=10 per group) and treated with anti-RSPO1 antibody 89M5, anti-RSPO2 antibody 130M23, gemcitabine, a combination of 89M5 and gemcitabine, a combination of 130M23 and gemcitabine, or control antibody 1B7.11. Antibodies were dosed at 15 mg/kg once a week, and gemcitabine was dosed at […] once a week. Administration of the antibodies and gemcitabine was performed via injection into the intraperitoneal cavity. Tumor growth was monitored and tumor volumes were measured with electronic calipers at specific time points. Data are expressed as mean±S.E.M.

PN7 tumors = assay: Serial transplantation of cells from treated PN7 tumors (tumorigenicity); type: in vivo, NOD-SCID mice; settings: 90 cells injected, 40 days growth with no treatment; vs control antibody
Experimental: The PN7 tumors described above were processed to yield single cell suspensions. Mouse cells were depleted from the cell mixtures using biotinylated anti-H2K^d and anti-CD45 antibodies and streptavidin-conjugated magnetic beads. The remaining human tumor cells were serially transplanted into a new cohort of mice. 90 tumor cells from each treatment group were injected into the flanks of NOD-SCID mice (n=10 mice per group). Tumors were allowed to grow for 40 days with no treatment and tumor volumes were measured with electronic calipers.

[2] = system: PN7 pancreatic tumor cells; assay: PN7 pancreatic tumor xenograft growth in NOD/SCID mice; type: in vivo; settings: vs control antibody; 130M23 10 mg/kg, 18R5 20 mg/kg, gemcitabine once a week, intraperitoneal
Experimental: Dissociated PN7 pancreatic tumor cells (1×10^5cells) were injected subcutaneously into the flanks of 6-8 week old NOD/SCID mice. Tumors were allowed to grow for 25 days until they reached an average volume of 130 mm^3. The mice were randomized (n=10 per group) and treated with anti-RSPO2 antibody 130M23, anti-FZD antibody 18R5, gemcitabine, a combination of 130M23 and gemcitabine, a combination of 18R5 and gemcitabine, a combination of 130M23 and 18R5, a combination of 130M23, 18R5 and gemcitabine, or control antibody 1B7.11. Anti-RSPO2 antibody 130M23 was dosed at 10 mg/kg once a week, anti-FZD antibody 18R5 was dosed at 20 mg/kg once a week, and gemcitabine was dosed at […] once a week. Administration of the antibodies and gemcitabine was performed via injection into the intraperitoneal cavity. Tumor growth was monitored and tumor volumes were measured with electronic calipers at specific time points. Data are expressed as mean±S.E.M. A parallel set of experiments included mice treated with a FZD8-Fc soluble receptor (10 mg/kg) in combination with gemcitabine and FZD8-Fc in combination with 130M23 and gemcitabine.

RSPO = assay: FACS RSPO binding activity of conditioned media from HEK-293 cells cotransfected with candidate humanized chains; settings: conditioned media of cotransfected HEK-293 cells
Experimental: The functionality of each candidate variant humanized heavy chain and light chain was tested by cotransfection into mammalian cells. Each candidate humanized heavy chain described above was cotransfected into HEK-293 cells with the murine light chain cDNA, and conditioned media was assayed by FACS for RSPO binding activity. […] The 89M5-H2 humanized heavy chain was cotransfected into HEK-293 cells with each of the candidate humanized light chains, and conditioned media was again assayed for antigen binding by FACS. […] The 130M23-H1 humanized heavy chain was cotransfected into HEK-293 cells with each of the candidate humanized light chains, and conditioned media was again assayed for antigen binding by FACS.

human RSPO1 = target: T1, human RSPO1 (Homo sapiens, UniProt Q2MKA7); assay: FACS screening of hybridoma supernatants on HEK-293 cells expressing FLAG-RSPO1furin-CD4TM-GFP; type: binding
T1 construct: followed by the two furin-like domains of RSPO1 (aa 34-135); expressed in transfected cells; host or cells: HEK-293
T1 sequence (Q2MKA7 34-135): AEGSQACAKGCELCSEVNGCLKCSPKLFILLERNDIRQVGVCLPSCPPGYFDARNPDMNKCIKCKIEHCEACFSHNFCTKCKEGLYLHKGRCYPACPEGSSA
From the text: Antibodies were generated against recombinant human RSPO1 protein amino acids 31-263 (R&D Systems, Minneapolis, Minn.). Mice (n=3) were immunized with RSPO1 protein using standard techniques. Sera from individual mice were screened against RSPO1 approximately 70 days after initial immunization using FACS analysis. The animal with the highest antibody titer was selected for final antigen boost after which spleen cells were isolated for hybridoma production. SP2/0 cells were used as fusion partners for the mouse spleen cells. Hybridoma cells were plated at 1 cell per well in 96 well plates, and the supernatants were screened against human RSPO1 by FACS analysis.
For FACS screening of anti-RSPO1 antibodies a chimeric fusion protein enabling cell surface expression of the N-terminal furin-like domains of human RSPO1 was constructed.
HEK-293 cells were transfected with FLAG-RSPOlfurin-CD4TM-GFP. After 48 hours, transfected cells were suspended in ice cold PBS containing 2% FBS and heparin and incubated on ice in the presence of 50 μl of hybridoma supernatants for 30 minutes. A second incubation with 100 μl PE-conjugated […] secondary antibody was performed to detect cells bound by antibody. Cells were incubated with an anti-FLAG antibody (Sigma-Aldrich, St. Louis, Mo.) as a positive control and an anti-PE antibody as a negative control. The cells were analyzed on a FACSCalibur instrument (BD Biosciences, San Jose, Calif.) and the data was processed using FlowJo software.

[3] = system: RSPO1-induced β-catenin signaling; assay: TOPflash luciferase assay in HEK-293 cells, Wnt3a plus human RSPO1; type: cell-based; settings: Wnt3a 5 ng/ml, RSPO1 10 ng/ml; antibodies 10 to 0.625 μg/ml
Experimental: HEK-293 cells were transfected with a 6×TCF-luciferase reporter vector (TOPflash, Millipore, Billerica, Mass.). After 24-48 hrs, the transfected HEK-293 cells were incubated with a combination of Wnt3a (5 ng/ml) and human RSPO1 (10 ng/ml, R&D BioSystems) in the presence of anti-RSPO1 antibodies 89M2, 89M4, 89M5, 89M7, 89M19, and 89M25, or 2 irrelevant control antibodies 254M14 and 254M26 (2-fold dilutions at 10 μg/ml to 0.625 μg/ml). The cells were incubated for 16 hours and luciferase activity was measured using Steady-Glo® Luciferase Assay System according to the manufacturer's instructions (Promega, Madison, Wis.).

binding of RSPO1 to LGR5 = target: T2, binding of RSPO1 to LGR5 (Homo sapiens, UniProt Q2MKA7); assay: FACS: blocking of soluble RSPO1-Fc binding to LGR5 on HEK-293 cells; settings: RSPO1-Fc 10 μg/ml, antibodies 10 μg/ml
T2 construct: full-length human RSPO1, RSPO2, RSPO3 and RSPO4 were ligated in-frame to a human Fc region; made in house; host or cells: RSPO1-Fc: insect cells (baculovirus); LGR5 construct: transiently transfected HEK-293
T2 sequence (Q2MKA7 21-263): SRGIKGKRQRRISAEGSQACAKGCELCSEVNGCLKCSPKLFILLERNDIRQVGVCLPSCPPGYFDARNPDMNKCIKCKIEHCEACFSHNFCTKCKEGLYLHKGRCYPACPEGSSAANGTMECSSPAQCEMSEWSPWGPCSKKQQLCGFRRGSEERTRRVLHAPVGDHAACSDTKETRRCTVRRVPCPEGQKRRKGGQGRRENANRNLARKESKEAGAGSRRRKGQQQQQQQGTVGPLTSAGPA
Experimental: HEK-293 cells were transiently transfected with the FLAG-LGR5-CD4TM-GFP construct (previously described in Example 2). After 48 hours, transfected cells were suspended in ice cold PBS containing 2% FBS and heparin and incubated on ice in the presence of RSPO1-Fc protein (10 μg/ml) and antibodies 89M2, 89M4, 89M5, 89M7, 89M19 or 89M25 (10 μg/ml). A second incubation with 100 μl PE-conjugated anti-human Fc secondary antibody was performed to detect cells bound by the RSPO1-Fc fusion protein. The cells were analyzed on a FACSCalibur instrument (BD Biosciences, San Jose, Calif.) and the data was processed using FlowJo software.

Molecule: Nc1ccn([C@@H]2O[C@H](CO)[C@@H](O)C2(F)F)c(=O)n1 [gemcitabine, reference compound]
reduction in tumor growth [1]: 49%
tumorigenicity of cells isolated from treated mice (PN7 tumors): decrease in tumorigenicity

B1: 18R5: anti-FZD antibody, Wnt pathway inhibitor (antibody, chains of the INN, looked up, V domains shown)
VH: EVQLVESGGGLVQPGGSLRLSCAASGFTFSHYTLSWVRQAPGKGLEWVSVISGDGSYTYYADSVKGRFTISSDNSKNTLYLQMNSLRAEDTAVYYCARNFIKYVFANWGQGTLVTVSS
VL: DIELTQPPSVSVAPGQTARISCSGDNIGSFYVHWYQQKPGQAPVLVIYDKSNRPSGIPERFSGSNSGNTATLTISGTQAEDEADYYCQSYANTLSLVFGGGTKLTVL
reduction in tumor growth [2]: approximately 55%
tumorigenicity of cells isolated from treated mice (PN7 tumors): greatly decreased tumorigenicity

B2: 130M23-H1: humanized 130M23 heavy chain variant (SEQ ID NO:70) (antibody)
heavy: EVQLVESGGGLVKPGGSLRLSCAASGFTFSSYAMSWVRQAPGKGLEWVSSISSGGSTYYPDSVKGRFTISRDNAKNSLYLQMNSLRAEDTAVYYCARGGDPGVYNGDYEDAMDYWGQGTTVTVSSASTKGPSVFPLAPCSRSTSESTAALGCLVKDYFPEPVTVSWNSGALTSGVHTFPAVLQSSGLYSLSSVVTVPSSNFGTQTYTCNVDHKPSNTKVDKTVERKCCVECPPCPAPPVAGPSVFLFPPKPKDTLMISRTPEVTCVVVDVSHEDPEVQFNWYVDGVEVHNAKTKPREEQFNSTFRVVSVLTVVHQDWLNGKEYKCKVSNKGLPAPIEKTISKTKGQPREPQVYTLPPSREEMTKNQVSLTCLVKGFYPSDIAVEWESNGQPENNYKTTPPMLDSDGSFFLYSKLTVDKSRWQQGNVFSCSVMHEALHNHYTQKSLSLSPGK
modifications: h130M23-H1L2 Heavy chain amino acid sequence
binding by FACS among candidate humanized chain variants (RSPO): most robust binding

B3: 89M5-L2: humanized 89M5 light chain variant (SEQ ID NO:69) (protein)
light: DIQMTQSPSSLSASVGDRVTITCKASQDVIFAVAWYQQKPGKAPKLLIYWASTRHTGVPSRFSGSGSGTDYTLTISSLQPEDFATYYCQQHYSTPWTFGGGTKVEIKRTVAAPSVFIFPPSDEQLKSGTASVVCLLNNFYPREAKVQWKVDNALQSGNSQESVTEQDSKDSTYSLSNTLTLSKADYEKHKVYACEVTHQGLSSPVTKSFNRGEC
modifications: h89M5-H2L2 Light chain amino acid sequence
binding by FACS among candidate humanized chain variants (RSPO): most robust binding

B4: 130M23-L2: humanized 130M23 light chain variant (SEQ ID NO:71) (protein)
light: B3 light with I30S, F31S, Y71F, L78V, P80A, G100Q
modifications: h130M23-H1L2 Light chain amino acid sequence
binding by FACS among candidate humanized chain variants (RSPO): most robust binding

B5: 89M5-H2: humanized 89M5 heavy chain variant (SEQ ID NO:68) (antibody)
heavy: QVQLVQSGAEVKKPGASVKVSCKTSGYTFTGYTMHWVRQAPGQRLEWMGGINPNNGGTTYNQNFKGRVTITRDTSASTAYMELSSLRSEDTAVYYCARKEFSDGYYFFAYWGQGTLVTVSSASTKGPSVFPLAPCSRSTSESTAALGCLVKDYFPEPVTVSWNSGALTSGVHTFPAVLQSSGLYSLSSVVTVPSSNFGTQTYTCNVDHKPSNTKVDKTVERKCCVECPPCPAPPVAGPSVFLFPPKPKDTLMISRTPEVTCVVVDVSHEDPEVQFNWYVDGVEVHNAKTKPREEQFNSTFRVVSVLTVVHQDWLNGKEYKCKVSNKGLPAPIEKTISKTKGQPREPQVYTLPPSREEMTKNQVSLTCLVKGFYPSDIAVEWESNGQPENNYKTTPPMLDSDGSFFLYSKLTVDKSRWQQGNVFSCSVMHEALHNHYTQKSLSLSPGK
modifications: h89M5-H2L2 Heavy chain amino acid sequence
binding by FACS among candidate humanized chain variants (RSPO): most robust binding

binding to RSPO1 (FACS) (human RSPO1): bound
blocking of binding of RSPO1 to LGR5 (binding of RSPO1 to LGR5): blocked
B6: 89M2: anti-RSPO1 monoclonal antibody; same heavy and light chain variable regions as 89M5 (antibody, V domains shown)
VH: EVQLQQSGPELVKPGASVKISCKTSGYTFTGYTMHWVRQSHGKTLEWIGGINPNNGGTTYNQNFKGKATLTVEKSSTTAYLELRSLTSEDSALYYCARKEFSDGYYFFAYWGQGTLVTVSA
VL: DIVMTQSHKFMSTSVGDRVNITCKASQDVIFAVAWYQQKPGQSPKLLIYWASTRHTGVPDRFTGSVSGTDYTLTISSVQAEDLALYYCQQHYSTPWTFGGGTKLEIK
blocking of RSPO1-induced β-catenin signaling [3]: blocked

binding to RSPO1 (FACS) (human RSPO1): bound
blocking of binding of RSPO1 to LGR5 (binding of RSPO1 to LGR5): blocked
B7: 89M4: anti-RSPO1 monoclonal antibody; same heavy and light chain variable regions as 89M5 (antibody, V domains shown)
VH: B6 VH
VL: B6 VL
blocking of RSPO1-induced β-catenin signaling [3]: blocked
